In the data set the test system is STAT6. Nature of the data set: Screening of full-length cDNA clones for promotion of STAT6 activation (luciferase reporter N4×8-luc). It counts as cell-based. The note with it: NIH3T3 cells cotransfected with N4×8-luc reporter and cDNA plasmid; 48 h culture, then mouse IL-4 0.5 ng/ml for 6 h. The method, then:
As a preferable method, NIH3T3 cells are inoculated on 10% FBS (Fetal Bovine Serum)-containing IMDM medium in a 96-well cell culture plate to a final cell density of 1×10^4 cells/well, and cultured for 24 hours at 37° C., in the presence of 5% CO2. Then, the luciferase reporter plasmid N4×8-luc which has a STAT6 response sequence, and the expression vector are cotransfected into the cells in a well using FuGENE 6 (Roche). After 48 hours of culture at 37° C., in the presence of 5% CO2 mouse IL-4 (Immuno Biological Laboratories Co., Ltd.) is added to a final concentration of 0.5 ng/ml. After culturing for further 6 hours, promoting activity for STAT6 activation is then measured by measuring luciferase activity using a long term luciferase assay system, Picagene LT2.0 (Toyo Ink Mfg). For example, luciferase activity can be measured using PerkinElmer's Wallac ARVOTMST 1420 MULTILABEL COUNTER. The method for gene introduction by FuGENE6, and measurement of luciferase activity by Picagene LT2.0 can be performed respectively according to the attached protocols. In a method of gene introduction with a 96-well plate using FuGENE6, the amount of FuGENE6 per 1 well is suitably 0.3 to 0.5 μl, preferably 0.3 μl; the amount of N4×8-luc reporter plasmid is suitably 50 to 100 ng, preferably 100 ng; and the amount of expression vector is suitably 50 to 100 ng, preferably 100 ng. An ability (action) to promote STAT6 activation refers to an ability to increase the reporter activity (luciferase activity) relative to the control experiment (for cells into which the reporter gene and a null vector were introduced). Increase in reporter activity is preferably by a factor of 1.5 or more, more preferably by a factor of 3 or more, and still more preferably by a factor of 6 or more.
NIH3T3 cells (purchased from Dainippon Pharmaceutical) were grown to 1×10^4 cells/well in a 96 well plate for cell culture for 24 hours at 37° C. (in the presence of 5% CO2) using 10% FBS containing IMDM medium. Then, 100 ng of luciferase reporter plasmid N4×8-luc having a STAT6 response sequence and 2 μl of the full-length cDNA prepared in above Example 1.(3) were cotransfected into the cells in a well using FuGENE 6 (purchased from Roche) according to the manufacturer's protocol. The luciferase reporter plasmid N4×8-luc having the STAT6 response sequence was constructed as follows. […] 157, 2058-2065 (1996)], oligonucleotides having the following sequences were synthesized:
The synthesized oligonucleotides were dissolved in sterile water to be 1μg/μl, respectively, mixed in 10 μl lots, and adjusted the volume to 32 μl with sterile water. The solution was heated for 5 min at 90° C., and gradually cooled down to room temperature to prepare a double-stranded oligonucleotide solution. The solution was reacted with T4 polynucleotide kinase (Takara Shuzo) according to the attached manual, then the reaction product was purified in a usual manner. Separately, SV40 promoter region of pGL3-Promoter vector (Promega) was replaced by the HSV thymidine kinase promoter sequence (from −50 to +10) with Hind III site and BglII site to construct a vector tk-luc. The aforesaid double-stranded oligonucleotide fragments were inserted into the XhoI site of this tk-luc vector using T4 DNA ligase (GIBCO/BRL). The obtained clones were sequenced according to a usual method, and clones in which plural oligonucleotide fragments were inserted were selected. […] The four-interlinked DNA fragments were excised from the N4×4-luc with a XhoI and a BglII site and purified to be inserted into a BamHI and a XhoI site of pBluescript II KS+ (Stratagene). The four-interlinked DNA fragments were excised from this plasmid with KpnI and SpeI and inserted into a KpnI and a NheI site of N4×4-luc plasmid to finally obtain N4×8-luc.

From patent publication US20030092616A1, “STAT6 activation gene” (priority 2001, published 2003) come the findings set out here.

B1: 56 (nucleic acid, listed as Homo sapiens)
chain: AGAGCCGCCGCCCAGGAAGGGGATGCGGAAACCCCTGGCTCGGTGGAGCGGAGAGGCAGGCGGGCAGGAGCCGAGGACGGCATGTCCCAGGCCCCGGGAGCACAGCCGAGCCCACCCACCGTGTACCACGAACGGCAGCGCCTGGAGCTGTGTGCTGTCCACGCCCTCAACAACGTTCTGCAGCAGCAGCTCTTTAGCCAGGAGGCTGCCGATGAGATCTGCAAGAGGTTGGCCCCAGACTCCCGGCTGAACCCTCATCGCAGCCTCCTGGGCACCGGCAACTATGATGTCAATGTGATCATGGCCGCTCTGCAGGGGCTGGGCCTGGCCGCCGTGTGGTGGGACAGGAGGAGGCCCCTGTCCCAGCTGGCCCTGCCCCAGGTACTGGGGCTGATCCTGAACCTGCCCTCGCCCGTGTCGCTGGGGCTGCTGTCACTGCCGCTGCGCCGGCGGCACTGGGTGGCCCTGCGCCAGGTGGACGGTGTCTACTACAACCTGGACTCCAAGCTGCGGGCGCCCGAGGCCCTGGGGGATGAGGACGGAGTCAGGGCCTTCCTGGCGGCTGCGCTGGCCCAGGGCCTGTGCGAGGTGCTGCTGGTAGTGACCAAGGAGGTGGAGGAGAAGGGCAGCTGGCTGCGGACAGACTGACCATGGCTGACCATCGGCGCCCACAGCGCAGTCCCTGCGCATCCCCCTCCGGCTGCGCACACTGCATGCCTGGGAAAGGCCAGCACTTCATGGACCCTGGGGAGGCCCCGCCCCCTCCCCACACCCCTGCTCCCCACTGCCGCTGCTGCCTCAATAAATCTGCTGATTTGCTGCC
modifications: CDS (82)..(645)
As for B1, the “Activity = (luciferase activity of the gene of each SEQ ID NO:)/(luciferase activity of pME18S-FL3)” value is 4.7.

B2: 241 (nucleic acid, listed as Homo sapiens)
chain: GGGGTGTCCAGTTGGTTGCCGCGGCAGTCTCTCCGAGCAGCGCATTTGTCTTCTAGGCTGCTTGGTTCGTGCCTCCGAGAAAGGGGTCTCCTGCTGCCAGCTAAGTGTGGGAGAACTTGTGCACGTATCTCCCCTCCGAATCCCAACGATGGGTAACGCCAGCTTTGGCTCCAAGGAACAGAAGCTGCTGAAGCGGTTGCGGCTTCTGCCCGCCCTGCTTATCCTCCGCGCCTTCAAGCCCCACAGGAAGATCAGAGATTACCGCGTCGTGGTAGTCGGCACCGCTGGTGTGGGGAAAAGTACGCTGCTGCACAAGTGGGCGAGCGGCAACTTCCGTCATGAGTACCTGCCGACCATTGAAAATACCTACTGCCAGTTGCTGGGCTGCAGCCACGGTGTGCTTTCCCTGCACATCACCGACAGCAAGAGTGGCGACGGCAACCGCGCTCTGCAGCGCCACGTTATAGCCCGGGGCCACGCCTTCGTCCTGGTCTACTCAGTCACCAAGAAGGAAACCCTGGAAGAGCTGAAGGCCTTCTATGAGCTGATCTGCAAGATCAAAGGTAACAACCTGCATAAGTTCCCCATCGTGCTGGTGGGCAATAAAAGTGATGACACCCACCGGGAGGTGGCCCTGAATGATGGTGCCACCTGTGCGATGGAGTGGAATTGCGCCTTCATGGAGATTTCAGCCAAGACCGATGTGAATGTGCAGGAGCTGTTCCACATGCTGCTGAATTACAAGAAAAAGCCCACCACCGGCCTCCAGGAGCCCGAGAAGAAATCCCAGATGCCCAACACCACTGAGAAGCTGCTTGACAAGTGCATAATCATGTGAGCCCTGGGCCTTAAGAGCCAGCTCTTCCTATCCTGTAGCGTGTAGAAAACGTGGACTCATTTCACTATGTTACATGTACATGGTTGATTTTGTGCTGTTGTTTGGACTGTAACATCCATGTTGTCAATACGTATACCTTGTAAGTGGATAACTTTTCTTTTTCCCAGGCCAGAGAATTCAAATTGTTAAAACATTGGCATTTGAAGAGGAGAACAAAATGTAGCATGATGTATTTAAAGTAAGGCCTTTAGTAATGAATGTAATGAGAGAAAATGTTTTGAAAAGAACAAAACATCAAAATGAATAGAAAGAAAAATTGGAAGGCGTCCTTTTGGTAACCCGATTATTGTGTATTACCTTTAAATATTTCACATCCTGTAAGTGCTTAATCATATCTTTTAATTGTGTATTTAAGAAAAGTGTTTTCACAACAAAAGCTTTTGATAAATTGCTGCGTGACATATACTAAATAAAAAAATGAATATGTTGATCATTAGGGGTGTGGGAGCAGAGAAAATTGTGAAAGTGACTCTCACTAAAGATGTTAGTAGTTTCTCATGTCATTTAAAAATGTTTGAGTATTCTGCATAGCAGTTTGTAAAAGTGTAACAGCTTATTGACTTAATAAAGCTTTTCCTGCATGC
modifications: CDS (149)..(835)
Take B2: the “Activity = (luciferase activity of the gene of each SEQ ID NO:)/(luciferase activity of pME18S-FL3)” value is 54.3.

B3: 50 (nucleic acid, listed as Homo sapiens)
chain: AATTCAACATGGCAGCCATGCGCTGGCGATGGTGGCAGCGGCTGTTACCTTGGAGGTTGCTGCAGGCCCGTGGCTTTCCACAAAATTCTGCACCCAGCCTGGGCCTAAGAGCGAGGACTTATTCCCAGGGCGACTGCTCGTATTCGCGCACGGCGCTGTATGATCTGCTCGGCGTCCCCTCCACAGCCACGCAGGCCCAAATCAAGGCGGCTTACTACCGTCAGTGCTTTCTCTACCACCCGGACCGCAACTCCGGGAGCGCGGAGGCCGCCGAGCGCTTCACGCGCATCTCCCAGGCCTACGTGGTGCTGGGCAGTGCCACCCTCCGTCGCAAGTATGATCGCGGCCTACTCAGCGACGAGGACCTGCGCGGACCTGGCGTCCGGCCCTCCAGGACGCCCGCACCCGACCCCGGCTCGCCGCGTACCCCGCCGCCCACCTCTCGGACCCACGACGGTTCTCGGGCCTCCCCCGGCGCCAACCGCACGATGTTCAACTTTGACGCCTTCTACCAGGCCCACTACGGGGAACAACTGGAGCGGGAACGGCGCCTGAGGGCCCGGCGGGAGGCCCTTCGCAAACGGCAGGAGTATCGGTCCATGAAAGGCCTCCGCTGGGAGGATACCCGAGACACGGCTGCCATTTTCCTCATCTTTTCAATCTTCATCATCATCGGCTTTTATATTTAATCGGAGAGAGAAGGGAAGGGGAGTGTCCCCAGCCAACCCCCCAGAAACGGCCTTTTTTCCTGCCTCTGAACCCTTGGCCGTTGATAGTCTACCTTTGCTGGGATCCGAAGGAACTGTACTCCCCCTGCCCTCCCCGACCCGCCCAGCTTAGCCGATGACCTGCACATCGCTCCACTGTGGTCCAGAAAAGGAGGCCTTTCGATGTCTGAGAAAGAGGCCCCACGCTGTAGAGTCCCGAAAGCCCAGGAGTGAAGGGGGTTCCTGGAGTCTCTAGGGTGCTTCTTCCAGAGTCTGTCTTCTTGCTTCCAGATGTGGTCAACTTCTGGAACACTCGCTGTAGCTTTATTGTTTAGCCCCAAGCAAGATTTATCTCCTCCTGCCCCGCATGTGTATGGTGGGCCTCTGTAACCTTGAAATGTGCAATGTGACCAATTGTTGACTACCAAAAGAAAAGGTCTGGGGTTGT
modifications: CDS (9)..(686)
Take B3: the “Activity = (luciferase activity of the gene of each SEQ ID NO:)/(luciferase activity of pME18S-FL3)” value came out at 18.5.
